In paper doi:10.1101/2023.09.15.557970 (bioRxiv, 2023):

The binders below were run against Human CSL spanning residues 25-449 (human, UniProt Q06330 25-449) (assay: ITC).
Chain of Human CSL spanning residues 25-449 (Q06330 25-449): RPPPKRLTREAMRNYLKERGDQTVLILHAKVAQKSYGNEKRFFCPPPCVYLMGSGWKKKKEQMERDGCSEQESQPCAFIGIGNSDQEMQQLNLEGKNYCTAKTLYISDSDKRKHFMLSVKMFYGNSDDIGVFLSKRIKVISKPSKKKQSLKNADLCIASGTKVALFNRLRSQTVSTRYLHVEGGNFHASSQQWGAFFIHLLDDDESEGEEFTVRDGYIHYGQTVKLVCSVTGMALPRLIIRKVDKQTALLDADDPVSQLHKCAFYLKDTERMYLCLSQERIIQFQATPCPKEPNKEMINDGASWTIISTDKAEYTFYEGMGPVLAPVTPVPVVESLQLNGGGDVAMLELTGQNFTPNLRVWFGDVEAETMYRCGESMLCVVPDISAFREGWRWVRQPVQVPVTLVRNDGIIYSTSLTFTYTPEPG

Kd [nM]	Binder
≤ 100	Notch2 RAMANK (domain or fragment, human, UniProt Q04721 1699-2076, looked up) MAKRKRKHGSLWLPEGFTLRRDASNHKRREPVGQDAVGLKNLSVQVSEANLIGTGTSEHWVDDEGPQPKKVKAEDEALLSEEDDPIDRRPWTQQHLEAADIRRTPSLALTPPQAEQEVDVLDVNVRGPDGCTPLMLASLRGGSSDLSDEDEDAEDSSANIITDLVYQGASLQAQTDRTGEMALHLAARYSRADAAKRLLDAGADANAQDNMGRCPLHAAVAADAQGVFQILIRNRVTDLDARMNDGTTPLILAARLAVEGMVAELINCQADVNAVDDHGKSALHWAAAVNNVEATLLLLKNGANRDMQDNKEETPLFLAAREGSYEAAKILLDHFANRDITDHMDRLPRDVARDRMHHDIVRLLDEYNVTPSPPGTVL
≤ 100	Notch1 RAMANK (domain or fragment, human, UniProt P46531 1758-2127, looked up) RKRRRQHGQLWFPEGFKVSEASKKKRREPLGEDSVGLKPLKNASDGALMDDNQNEWGDEDLETKKFRFEEPVVLPDLDDQTDHRQWTQQHLDAADLRMSAMAPTPPQGEVDADCMDVNVRGPDGFTPLMIASCSGGGLETGNSEEEEDAPAVISDFIYQGASLHNQTDRTGETALHLAARYSRSDAAKRLLEASADANIQDNMGRTPLHAAVSADAQGVFQILIRNRATDLDARMHDGTTPLILAARLAVEGMLEDLINSHADVNAVDDLGKSALHWAAAVNNVDAAVVLLKNGANKDMQNNREETPLFLAAREGSYETAKVLLDHFANRDITDHMDRLPRDIAQERMHHDIVRLLDEYNLVRSPQLHGA
≤ 100	Notch4 RAMANK (domain or fragment, human, UniProt Q99466 1472-1833, looked up) RRRRREHGALWLPPGFTRRPRTQSAPHRRRPPLGEDSIGLKALKPKAEVDEDGVVMCSGPEEGEEVGQAEETGPPSTCQLWSLSGGCGALPQAAMLTPPQESEMEAPDLDTRGPDGVTPLMSAVCCGEVQSGTFQGAWLGCPEPWEPLLDGGACPQAHTVGTGETPLHLAARFSRPTAARRLLEAGANPNQPDRAGRTPLHAAVAADAREVCQLLLRSRQTAVDARTEDGTTPLMLAARLAVEDLVEELIAAQADVGARDKWGKTALHWAAAVNNARAARSLLQAGADKDAQDNREQTPLFLAAREGAVEVAQLLLGLGAARELRDQAGLAPADVAHQRNHWDLLTLLEGAGPPEARHKATP
≤ 100	Notch3 RAMANK (domain or fragment, human, UniProt Q9UM47 1663-2038, looked up) MVARRKREHSTLWFPEGFSLHKDVASGHKGRREPVGQDALGMKNMAKGESLMGEVATDWMDTECPEAKRLKVEEPGMGAEEAVDCRQWTQHHLVAADIRVAPAMALTPPQGDADADGMDVNVRGPDGFTPLMLASFCGGALEPMPTEEDEADDTSASIISDLICQGAQLGARTDRTGETALHLAARYARADAAKRLLDAGADTNAQDHSGRTPLHTAVTADAQGVFQILIRNRSTDLDARMADGSTALILAARLAVEGMVEELIASHADVNAVDELGKSALHWAAAVNNVEATLALLKNGANKDMQDSKEETPLFLAAREGSYEAAKLLLDHFANREITDHLDRLPRDVAQERLHQDIVRLLDQPSGPRSPPGPHG
